# Assay results taken from PMC7961048, “Hierarchized phosphotarget binding by the seven human 14-3-3 isoforms” (Nature Communications, 2021).
# Key:
# [1] = target: 14-3-3β (UniProt P31946); test: competitive FP, FITC-HSPB6 phosphopeptide tracer; settings: reference: unphosphorylated 18E6 peptide; sites T156
# [2] = target: 14-3-3γ (UniProt P61981); test: competitive FP, FITC-HSPB6 phosphopeptide tracer; settings: reference: unphosphorylated 18E6 peptide; sites T156
# [3] = target: 14-3-3ε (UniProt P62258); test: competitive FP, FITC-HSPB6 phosphopeptide tracer; settings: reference: unphosphorylated 18E6 peptide; sites T156
# [4] = target: 14-3-3ζ (UniProt P63104); test: competitive FP, FITC-HSPB6 phosphopeptide tracer; settings: reference: unphosphorylated 18E6 peptide; sites T156
# [5] = target: 14-3-3η (UniProt Q04917); test: competitive FP, FITC-HSPB6 phosphopeptide tracer; settings: reference: unphosphorylated 18E6 peptide; sites T156
# [6] = target: 14-3-3σ (UniProt P31947); test: competitive FP, FITC-HSPB6 phosphopeptide tracer; settings: reference: unphosphorylated 18E6 peptide; sites T156
# [7] = target: 14-3-3τ (UniProt P27348); test: competitive FP, FITC-HSPB6 phosphopeptide tracer; settings: reference: unphosphorylated 18E6 peptide; sites T156
# [8] = target: phosphorylated 14-3-3ζ-18E6 chimera (14-3-3ζ∆C-GGGG-18E6 PBM) (human | human papillomavirus type 18) (UniProt P63104); test: crystal structure
Substance,binding against the reference [1],binding against the reference [2],binding against the reference [3],binding against the reference [4],binding against the reference [5],binding against the reference [6],binding against the reference [7],stoichiometry N [8]
HPV18 E6 (18E6) (from UniProt P06463) p18E6 peptide,gained,gained,gained,gained,gained,gained,gained,–
phosphorylated 14-3-3ζ-18E6 chimera (14-3-3ζ∆C-GGGG-18E6 PBM) (from UniProt P63104 1-229),–,–,–,–,–,–,–,2
